The record followed here is paper doi:10.1101/2024.07.10.601956.

For the assay, the target named is Synthetic Mtln protein (UniProt Q8NCU8). Description: mass photometry.

For the substance “Synthetic Mtln protein (from UniProt Q8NCU8 1-56) (natural protein)”, the stoichiometry N was found to be 6.
